# Assay results reported in the DeepSol protein solubility set.
# Experiment: soluble on expression in E. coli; label from the status in PepcDB or PDB records
row,Sequence,soluble on expression in E. coli
1,MSLLREKAVPIRIPDQLPASDVLRNENIFVMSESRASTQEIRPLKVLLLNLMPKKIETETQFLRLLSNSPLQVDIELLRIDDRPSKNTPEEHLNTFYRQFELVKNRNFDGLIITGAPLGLVQFEDVAYWQHLQNIMAWAKAHVTSTLYICWAAQAGLKLLYNLPKRTREEKLSGVYYHDIHKPFHPLLRGFDDRFLAPHSRYADFDAEFLAEHTDLDILATSDVAGVYLAATKDKRNVFVTGHPEYDAYTLHGEYVRDLGEGLNPAIPVNYYPNDNPDNKPCASWRSHGHLLFANWLNYCVYQQTPYDLEKFSEANFTKDEEGHHHHHH,soluble
2,SDSASQDINLNSPNKGVLSDFMTDVPVDPGVVHRTPVVEGLTEGEEEELRAELAKVEEEIVTLRQVLAAKERHCGELKRRLGLSTLGELKQNLSRSWHDVQVSTAYVKTSEKLGEWNEKVTQSDLYKKTQETLSQAGQKTSAALSTMGSAISRKLGDMSSYSIRHSISMPVMRNSATFKSFEDRVGTIKSKVVGGRENGSDNLPPSPGSGDQTLPDHAPF,soluble
3,MALLPAVRRYGRLTRATGLVLEATGLQLPLGATCIIERQDGPETKEVESEVVGFNGQRLFLMPLEEVEGILPGARVYARNGHGDGLQSGKQLPLGPALLGRVLDGGGKPLDGLPAPDTLETGALITPPFNPLQRTPIEHVLDTGVRAINALLTVGRGQRMGLFAGSGVGKSVLLGMMARYTRADVIVVGLIGERGREVKDFIENILGPDGRARSVVIAAPADVSPLLRMQGAAYATRIAEDFRDRGQHVLLIMDSLTRYAMAQREIALAIGEPPATKGYPPSVFAKLPALVERAGNGIHGGGSITAFYTVLTEGDDQQDPIADSARAILDGHIVLSRRLAEAGHYPAIDIEASISRAMTALITEQHYARVRLFKQLLSSFQRNRDLVSVGAYAKGSDPMLDKAITLWPQLEAFLQQGIFERADWEDSLQALDLIFPTV,soluble
4,VKLAAGMGVMSDLEKKFIELEAKLVAQPAGQAMPGKSNIFANNEAWRQEMLKQDPEFFNRLANGQSPEYLWIGCADSRVPANQLLDLPAGEVFVHRNIANQCIHSDISFLSVLQYAVQYLKVKHILVCGHYGCGGAKAALGDSRLGLIDNWLRHIRDVRRMNAKYLDKCKDGDEELNRLIELNVLEQVHNVCATSIVQDAWDAGQELTVQGVVYGVGDGKLRDLGVVVNSSDDISKFYRTKSDSGALKAGNPNAPLVQVTKGGESELDSTMEKLTAELVQQTPGKLKEGANRVFVNNENWRQKMLKQDPQFFSNLAHTQTPEILWIGCADSRVPANQIINLPAGEVFVHRNIANQCIHSDMSFLSVLQYAVQYLKVKRVVVCGHYACGGCAAALGDSRLGLIDNWLRHIRDVRRHNQAELSRITDPKDSLNRLIEINVLEQMHNVCATSIVQDAWDAGQELEVQGVVYGVGDGKLRDMGVVAKANDDIGQIFRTKQ,soluble
5,GLVNAHTHLEMTPLIGAFSELELTEMLGSGTALFNRLGNGEFEYLVEAGVELAALNFLLGGVTTVNSMDARPAAGAEAFGEAGLRGFFGPAISDLFWDQPVDQQFSRAREFVETYHDTYDGRIRATICPHDDWSCTRQLWERTASLAAEYPDLLVHTHLLELEESNTMARANGGEDSVGLLDDVGLLDDRLVAAHFRLGDEEDIQRTAEADAAVAHCPSVFCYWNPDGETQWTPVPELRAAGVDVGVGIDDHYWHDSYSMFGEARQARLAANLKRSAGQFDSMELIRMLTIEGARALGMGDE,not soluble
6,MGHHHHHHSHMKNYYYFLGQGLTLSPRLECSSTISAHCNLHLLGSSNSPVAASPVAGTTGTCHHDWLIFVFLVETGFHHIGQTGLEFLTSGDPPTLASKSAGITGVSHCAWPTFLLNDMRHSFNKNLVIIFYVPAIS,not soluble
7,MGSDKIHHHHHHMAGCDDSFDIIVVGAGPVGLSFAASLAYSQLKLAVVEGQALERLASPAFDGREIALTHASIGILRELGAWDVISASDKSPLQGARVLNGSSPFALCFDSPGGSAEPLGVLVPNCQIRDALFKIIRLRGHARLLCGHSVVRATNSRQGAVITLSNGRQLSARLLVAADSRFSATRNLLGIGADINRLGNSMLICRVRHERPHHQIAIEWFDHHQTVAMLPLAPGVSSLLLTLPSNEADGLLALDDELFLRELTKRCRGRLGTMSLASQRYIYPLATTWAHRFRAPSFALIGDAAIGMHPVTAHGFNIGLGGQKQLARGIETAWRDRRDIADPDMLHRYESRLRLSAAPLYHATNILVGLYSSEHPAARLARHVGLRLGQHLPFVRHGIAAMLRR,not soluble
8,EAVIVVDERDVVIDLNPQAKAIIGTPGAAWIGRPLEDVLPGLIELRDSPTDDIPDRAEITVPVNGEERAYEVRQTPLHRGYGTVTGQLITLTD,not soluble
9,MSEKWIPEIMTPLKQDIVKMPEIIRQASGIKIFGRKIKSIIFTTDIAIIRNTDAQAVIAVYPFTPHPAITKGIIEAADIPVFSGVGGGLTQGMRSAYMSLFAEAQGSMGVVLNGPTPIETIKMVDEAIDIPIISTVTSIHTPIDEKLAAGVDMINISAGKDTAATVRYFRGKYPELPIIATGGPTESSIHETIIAGANAITYTPPSNGELFSKKMKKYREQEKATDEE,soluble
10,MTGRIVHFEIPFDDGDRARAFYRDAFGWAIAEIPDMDYSMVTTGPVGESGMPDEPGYINGGMMQRGEVTTPVVTVDVESIESALERIESLGGKTVTGRTPVGNMGFAAYFTDSEGNVVGLWETAR,soluble
11,MGKFISGSIVAILTDQIEESTACNLKHLLRNDPLFKPLIQTNVHKKRSAYEIIGVHTCEENEPCRIGRTRSCLCQEDFVCDKTPANKNVHLCTKLGYFRLFEANKK,not soluble
12,MKSYQPKSLLNDLQYYITPPHDCSYLDNKSARMVFLDPIHRIDVVTLSELSRVGFRRSGDFVYRPECHLCRQCLSCRVPVHDFNMNSLQKKAWKRNQDLRMSIVPTHAATSVHYQLYERYINERHADGDMFPPSLDQFEKFLVHSCTESFFLELWKDDRLICVSTCDLMDDGLSAVYTFFDPDENRRSLGVFAILKQLEYVKSIDLDYLYLGYWVPHSQKMNYKSQYIPLELLLDGQWRRLNRALSQEEISQLGESLMTILPSEWNSMIIKLEHHHHHH,not soluble
13,MGSDKIHHHHHHMERLAQPSRFLQRKLFEVNLLKPVTVEKEAPIGEIRRILRDTGSRIVLVVNGEGRLEGVIYRSSVILVTSRKSEAKALDIMEEPAVVLKPSYSLEEAVFSMLKFDEWYAPVVNDANRLVGVLGLETPIRLLLEAGFYRGYTASDAMTRDVEYVLEGDSLTRVWEIMVERRYAGVPVVDQRMVVRGIVTQYDLIRKGYTRLGLESEAPPHRVRVESVMTRSVIYVAESDNLEDVARIMLDRGVGRVPVVKSRDSRVLTGIIDREDLVRLYFKSRGRASL,not soluble
14,MGSDKIHHHHHHMAEERVEPKPIDLGEYKFGFHDDVEPVLSTGKGLNEGVIRELSAAKGEPEWMLEFRLKSYETFKKMPMQTWGADLSEIDFDDLIYYQKPSDKPARSWDDVPEKIKETFERIGIPEAERAYLAGASAQYESEVVYHNMKEEFQKLGIIFTDTDSALKEYPDLFKQYFAKLVPPTDNKLAALNSAVWSGGTFIYVPKGVKVDIPLQTYFRINNENIGQFERTLIIVDEGASVYYVEGCTAPTYSSNSLHAAIVEIFALDGAYMRYTTIQNWSDNVYNLVTKRAKAQKDATVEWIDGNLGAKTTMKYPSVYLDGEGARGTMLSIAFANAGQHQDTGAKMIHNAPHTSSSIVSKSIAKGGGKVDYRGQVTFNKNSKKSVSHIECDTIIMDDLSASDTIPFNEIHNSQVALEHEAKVSKISEEQLYYLMSRGLSESEATEMIVMGFVEPFTKELPMEYAVELNRLISYEMEGSVG,not soluble
15,PESPLRSGRREIANILGVAAQVQRQVAEALRNNNTDGIVDALVRARGTQGQINQMIAAANMGKETIQASPLLWAQRQRIRSMMRILNPVDNAMRNTRVLARRALVLCEDNDEVSGRQIQIIEQLAEVSEDLSNLYYGNSKLSENAEIPRLVNNLKMIGSRTGLEVSEGKVLSAQVVLAQSRSLVVDLLQICGQSRRSAVEILSPTSMHPASVKEIWNDDV,not soluble
16,MTDKKTTEKKETETAATFTEELTAVLEEIKEEPVKEKKKGEIVTIVNETDIQIGEREYRIVKNHRDAFDPERLGERFSEVLARYDYIVGDWGYEQLRLRGFFDTSNRRAAPDQRIDTLEDYLYEYCNFGCAYFVIERTGERKEKTTHRRRRHKKNNRSNAFVEEKSAPANKNSKPVIRTRKEENKKTTTPKQPSPKKSGKGFTIRQREELEHHHHHH,soluble
